B1: TNXB (parent)
chain: FSEIRETSAKVNWMPPPSRADSFK

Variants of: B1
Assay: protein stability index of a GFP-peptide fusion (GPS, HEK-293T) (PSI 1-6); higher = more stable
Conditions: c terminus: a fixed tail appended
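Also: lentivirally expressed fusions sorted by FACS into six bins by GFP to DsRed ratio, PSI derived from sequencing read proportions per bin multiplied by bin number.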

Protein stability index, by site and new letter:
E6: S 2.64, L 2.28, V 2.84, H 3.38, K 3, N 2.69, G 3.03, F 2.22, M 2.34, I 1.82, P 3.21, W 2, A 3.31, R 2.89, D 3.28, T 2.95, Q 2.02, Y 2.87, C 2.65
T7: F 1.78, A 3.23, H 3.1, Q 3.38, M 2.97, D 3.86, R 3.3, C 3.24, N 3.37, I 2.9, L 2.69, V 2.97, G 3.14, Y 2.25, K 3.97, P 3.64, E 3.88, S 3.22
P15: A 3.51, N 3.12, Q 3.36, C 2.71, K 3.33, T 3.38, E 3.49, I 2.18, F 2.46, D 3.85, G 3.29, V 3.48, H 3.42, Y 2.22, W 2.56, M 3.27, R 3.21, S 3.15, L 3.21
S2: Y 3, M 3.17, K 3.49, E 3.98, N 4.04, D 4.12, L 2.97, P 3.65, I 2.17, V 1.9, W 2.37, G 2.97, T 2.67, R 3.2, A 2.69, Q 3.97, H 2.21, F 2.65
P17: N 3.35, V 3.23, H 3.08, E 4.09, G 3.81, S 3.44, F 3.19, I 3.36, K 3.43, Y 2.67, M 2.97, C 2.81, T 3.99, L 2.86, W 2.79, A 3.65, D 3.84, R 3.3, Q 3.24
R19: A 3.52, C 3.33, D 4.25
R5: S 4.02, E 4.23, G 3.22, F 2.86, V 3.52, A 3.96, L 3.51, Q 4.15, I 3.4, W 2.02, H 3.79, T 3.87, N 3.79, C 2.83, P 4.12, K 3.74, Y 3.04, D 3.97, M 3.48
S18: M 2.89, K 3.57, W 1.98, R 3.43, Y 3.5, L 2.75, H 3.3, I 2.46, T 3.16, G 3.51, F 2.71, D 3.52, V 3.32, N 3.18, C 3.37, P 3.42, Q 3.64, E 3.67, A 3.68
N12: G 3.35, V 1.95, S 3.38, I 3.24, Q 3.04, A 2.14, Y 2.09, H 2.71, W 2.2, F 2.96, E 3.46, R 2.62, T 2.9, K 2.88, D 3.83, P 3.17, M 2.04
P16: E 3.52, A 3.05, G 2.8, S 3.69, R 2.87, L 3.02, Y 2.67, C 3.14, W 1.82, F 2.67, I 3.15, H 3.05, D 3.03, K 3.33, Q 3.23, V 3.41

From the supplement of paper PMC10567573
